Twelve substances from PMC4579573 can be followed below.

In series [1] the target is CfBRCC36(Ile212Asp)–KIAA0157ΔC heterodimer (C. floridanus).
A short description of series [2]: SEC-MALS; complexes and subcomplexes purified from insect cells; size exclusion chromatography coupled to multi-angle light scattering (Figures S1B-E and S8E-G). For orientation: SEC sorts molecules by how far they enter the pores of the column.
Series [3] concerns the target Cf BRCC36–KIAA0157 binary complex (C. floridanus) (UniProt E2AXC7). The series is described as above.
Series [4] deals with K63-linked diUb covalently coupled to AlexaFluor-488 (UniProt P0CG48). The experiment in a line: fluorescence polarisation; complex titrated against 10 nM AlexaFluor-488 K63-linked diUb tracer. (Polarisation of emitted light reports the rotation of a fluorescent probe.)
In series [5] the target is CfBRCC36(Ala205Asp + Ile212Asp)–KIAA0157ΔC heterodimer (C. floridanus). The experiment in a line: SEC-MALS; complexes and subcomplexes purified from insect cells; size exclusion chromatography coupled to multi-angle light scattering (Figures S1B-E and S8E-G).
Series [6] addresses CfBRCC36–KIAA0157–BRCC45 triple complex (C. floridanus) (UniProt E2AXC7). Described as above.
Series [7] concerns the target H. Sapiens ARISC (BRCC36–Abraxas–BRCC45–MERIT40) complex (H. sapiens) (UniProt P46736). The description is as above.
The target of series [8] is unlabeled K63 linked diUb (UniProt P0CG48).
Series [9] deals with CfBRCC36–KIAA0157ΔC heterodimer (C. floridanus). The series can be described thus: SEC-MALS; complexes and subcomplexes purified from insect cells; size exclusion chromatography coupled to multi-angle light scattering (Figures S1B-E and S8E-G).
Series [10] addresses CfBRCC36(Ala205Asp)–KIAA0157ΔC heterodimer (C. floridanus).

For “CfBRCC36(Ile212Asp)–KIAA0157ΔC heterodimer (complex)”, the cleavage of a K63-linked diUb fluorigenic substrate in vitro, at near saturating substrate concentrations (>10 μM diUb) (fold less active than WT) in series [1] stood at 10.
Take “CfBRCC36(Ile212Asp)–KIAA0157ΔC heterodimer”: the “percent eluting as monomers of heterodimers” value in series [2] is 70% and 36% of proteins, respectively, eluting as monomers of heterodimers.
For “Cf BRCC36–KIAA0157 binary complex (from UniProt E2AXC7 1-253)”, the stoichiometry N in series [3] turned out to be 2.
As to “BRCC36(E30A)-KIAA0157ΔC complex (from UniProt E2AXC7 1-253)”, the dissociation constant Kd in series [4] amounted to 2.4 µM.
In the case of “BRCC36 (E30A+A205D+I212D)-KIAA0157ΔC complex (from UniProt E2AXC7 1-253)”, the Kd in [4] is 2.2 µM.
For “CfBRCC36(Ala205Asp + Ile212Asp)–KIAA0157ΔC heterodimer (complex)”, in series [5], the percent eluting as super dimers worked out at 15%.
On to “CfBRCC36–KIAA0157–BRCC45 triple complex (from UniProt E2AXC7 1-253)”, for which the stoichiometry N in series [6] is 2.
“CfBRCC36(Ala205Asp + Ile212Asp)–KIAA0157ΔC heterodimer”: the “percent eluting as a monomer of heterodimers” value in series [2] is on record as 85% major peak.
Substance “H. Sapiens ARISC (BRCC36–Abraxas–BRCC45–MERIT40) complex (from UniProt P46736 1-316; Q6UWZ7 1-409; Q9NXR7 1-383; Q9NWV8 1-329)” came in with a stoichiometry N in [7] of 2.
On to “CfBRCC36–KIAA0157ΔC heterodimer (complex)”, for which the Km, Michaelis-Menten kinetic analysis for cleavage of K63 diUb (Figure 6B) in series [8] worked out at 4.2 µM. In series [9], this substance showed a stoichiometry N of 2.
“CfBRCC36(Ala205Asp)–KIAA0157ΔC heterodimer (complex)” registered a cleavage of a K63-linked diUb fluorigenic substrate in vitro, at near saturating substrate concentrations (>10 μM diUb) (fold less active than WT) in series [10] of 10.
With “CfBRCC36(Ala205Asp)–KIAA0157ΔC heterodimer”, in series [2], the “percent eluting as monomers of heterodimers” value is 70% and 36% of proteins, respectively, eluting as monomers of heterodimers.

As a reminder, the stoichiometry N is the number of molecules, sites or subunits per partner or assembly. The term Kd denotes the free concentration of one partner at which half of the binding sites on the other are occupied at equilibrium, for simple one-to-one binding. Higher therefore signals a looser complex.
